# Measurements as given in patent US10994047B2, “Peptide dendrimers comprising fibrinogen-binding peptides” (HAEMOSTATIX LIMITED, priority 2014, dated 2021).
# Where no end group is shown, it is not given here.
# What was measured:
# [1] = target: T1, fibrinogen hole 'a' and hole 'b' (Homo sapiens, UniProt P02675+P02679); settings: cited from earlier work
# T1 sequence (P02679 27-433 limits assumed): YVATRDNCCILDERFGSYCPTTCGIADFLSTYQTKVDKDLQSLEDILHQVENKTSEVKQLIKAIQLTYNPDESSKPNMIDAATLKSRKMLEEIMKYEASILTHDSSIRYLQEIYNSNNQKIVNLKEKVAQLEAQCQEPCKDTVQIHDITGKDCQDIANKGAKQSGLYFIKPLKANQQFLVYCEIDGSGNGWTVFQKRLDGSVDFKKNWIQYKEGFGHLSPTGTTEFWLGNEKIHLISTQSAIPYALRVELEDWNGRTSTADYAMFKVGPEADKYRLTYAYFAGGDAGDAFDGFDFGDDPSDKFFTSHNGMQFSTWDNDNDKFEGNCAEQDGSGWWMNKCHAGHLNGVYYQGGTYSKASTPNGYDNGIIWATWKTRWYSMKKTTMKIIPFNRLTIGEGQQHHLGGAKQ
# T1 sequence (P02675 31-491): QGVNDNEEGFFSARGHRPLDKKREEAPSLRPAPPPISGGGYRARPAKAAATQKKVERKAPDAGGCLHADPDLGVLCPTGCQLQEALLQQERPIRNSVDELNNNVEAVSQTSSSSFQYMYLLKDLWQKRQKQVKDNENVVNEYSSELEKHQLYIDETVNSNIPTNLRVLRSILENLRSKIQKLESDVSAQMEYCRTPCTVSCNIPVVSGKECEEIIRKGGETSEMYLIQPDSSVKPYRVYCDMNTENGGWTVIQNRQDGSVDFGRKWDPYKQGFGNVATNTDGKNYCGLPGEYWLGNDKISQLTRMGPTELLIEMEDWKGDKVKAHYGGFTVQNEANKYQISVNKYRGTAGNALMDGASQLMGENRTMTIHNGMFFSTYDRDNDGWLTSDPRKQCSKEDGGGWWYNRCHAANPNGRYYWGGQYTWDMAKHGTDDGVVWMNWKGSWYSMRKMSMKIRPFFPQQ
# T1 sequence (P02671 20-629 partner limits assumed): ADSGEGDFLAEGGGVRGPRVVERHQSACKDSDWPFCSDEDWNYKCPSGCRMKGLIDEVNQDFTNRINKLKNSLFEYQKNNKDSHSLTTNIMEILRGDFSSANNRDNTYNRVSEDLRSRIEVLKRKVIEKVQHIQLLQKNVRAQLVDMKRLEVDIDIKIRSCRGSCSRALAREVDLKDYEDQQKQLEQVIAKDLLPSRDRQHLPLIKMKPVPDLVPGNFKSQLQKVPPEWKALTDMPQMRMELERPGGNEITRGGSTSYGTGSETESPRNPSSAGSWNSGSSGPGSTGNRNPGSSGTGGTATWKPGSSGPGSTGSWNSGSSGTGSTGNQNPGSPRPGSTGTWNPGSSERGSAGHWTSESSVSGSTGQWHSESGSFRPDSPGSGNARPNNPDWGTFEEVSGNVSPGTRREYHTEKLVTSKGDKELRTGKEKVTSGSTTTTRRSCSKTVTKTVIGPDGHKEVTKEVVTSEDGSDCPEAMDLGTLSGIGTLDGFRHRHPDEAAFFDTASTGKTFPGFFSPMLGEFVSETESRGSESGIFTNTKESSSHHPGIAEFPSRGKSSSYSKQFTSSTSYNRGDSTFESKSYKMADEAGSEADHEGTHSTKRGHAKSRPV
# [2] = target: T2, purified human fibrinogen (Homo sapiens, UniProt P02675+P02679); assay: Copolymerisation of peptide dendrimer with purified fibrinogen, clotting time on KC4 Delta coagulation analyser; assay type: biochemical
# T2 sequence (P02679 27-433 limits assumed): T1 sequence (P02679 27-433 limits assumed)
# T2 sequence (P02675 31-491): T1 sequence (P02675 31-491)
# T2 sequence (P02671 20-629 partner limits assumed): T1 sequence (P02671 20-629 partner limits assumed)
# Experimental: The ability of Peptide Dendrimer No. 12 to polymerise fibrinogen was assessed. 30 μl of dendrimer in solution, at concentration ranging from 0.005-2 mg/ml, was added to 100 μl purified human fibrinogen at 3 mg/ml (the level of fibrinogen found in the blood). Polymerisation of fibrinogen was analysed using a Sigma Amelung KC4 Delta coagulation analyser.
# The ability of Peptide Dendrimer Nos. 4, 5, 10, 11, and 12 to copolymerise with fibrinogen was assessed using the same method described in Example 2. The concentration of each dendrimer was varied from 0.005-0.5 mg/ml.
# The ability of the dendrimers to copolymerise with fibrinogen was assessed using the same method described in Example 2, for a concentration of each dendrimer ranging from 0.005-0.5 mg/ml.
# [3] = target: T3, fibrinogen in human plasma (Homo sapiens, UniProt P02675+P02679); assay: Polymerisation of fibrinogen in human plasma, clotting time; assay type: biochemical; settings: 37° C.; for ability to polymerise fibrinogen in human plasma: 30 μL dendrimer 0.25 mg/ml added to 100 μL human plasma, FIG. 7
# T3 construct: from tissue; host or cells: human plasma
# T3 sequence (P02679 27-433 limits assumed): T1 sequence (P02679 27-433 limits assumed)
# T3 sequence (P02675 31-491): T1 sequence (P02675 31-491)
# T3 sequence (P02671 20-629 partner limits assumed): T1 sequence (P02671 20-629 partner limits assumed)
# Experimental: 30 μL of each dendrimer (at a concentration of 0.25 mg/ml) was added to 100 μL human plasma at 37° C., and polymerisation of fibrinogen was determined using a Sigma Amelung KC4 Delta coagulation analyzer.
# human fibrinogen = target: T4, human fibrinogen (Homo sapiens, UniProt P02675+P02679); assay: Clotting activity of dendrimers extracted from gamma-irradiated gelatin paste; assay type: biochemical; settings: 37° C.
# T4 sequence (P02679 27-433 limits assumed): T1 sequence (P02679 27-433 limits assumed)
# T4 sequence (P02675 31-491): T1 sequence (P02675 31-491)
# T4 sequence (P02671 20-629 partner limits assumed): T1 sequence (P02671 20-629 partner limits assumed)
# Experimental: 2 ml of solution of Peptide Dendrimer No. 12 or 13 was mixed with SURGIFLO Haemostatic Matrix (a hydrated flowable gelatin matrix) to form a paste of each peptide. Each paste was sterilised by irradiation with ^60Co gamma rays at a dose of 30 kGy, and then stored at room temperature. Samples of the sterilised pastes were used for testing after storage for two and four weeks.
# After storage, peptide dendrimers were extracted from each paste using 10 mM HEPES buffer. 30 μL of each extract (with a peptide concentration of about 0.25 mg/ml) was added to 100 μL of human fibrinogen at 3 mg/ml, and the ability of each dendrimer to polymerise fibrinogen (the ‘clotting’ activity) at 37° C. was determined using a Sigma Amelung KC4 Delta coagulation analyser. The polymerisation activity of non-irradiated control samples was also determined.
# [4] = dendrimer 0.005-0.5 mg/ml, fibrinogen 3 mg/ml, FIG. 2 and 3
substance,measurement,setting,value
GHRPY- (SEQ ID NO: 11) (listed as Homo sapiens),binding preference for hole 'a' or hole 'b' of fibrinogen,[1],binds strongly and preferentially to the ‘b’ hole of fibrinogen
GPRP- (SEQ ID NO: 1),binding preference for hole 'a' or hole 'b' of fibrinogen,[1],binds strongly and preferentially to the ‘a’ hole of fibrinogen
GPRPFPA (listed as Homo sapiens) [GPRPFPA (SEQ ID NO: 3)],binding preference for hole 'a' or hole 'b' of fibrinogen,[1],binds with high preference for hole ‘a’ in fibrinogen
GPRPG (SEQ ID NO: 15) ((5)..(5) Carbox-terminal end may comprise an amide group; listed as Homo sapiens),binding preference for hole 'a' or hole 'b' of fibrinogen,[1],"binds to hole ‘a’ and hole ‘b’ of fibrinogen, but with some preference for hole ‘a’"
"Peptide Dendrimer No. 8: three-branch dendrimer: two peptides GPRPG, third APFPRPG attached by its amino-terminal end, carboxy-terminal amide (chain 2 APFPRPG-NH2; also: three-branch dendrimer core: two GPRPG, APFPRPG attached by its amino-terminal end; listed as Homo sapiens)",ability to copolymerise with fibrinogen (clotting time),[2]; [4],able to copolymerise with fibrinogen
same,ability to polymerise fibrinogen in human plasma,[3],not able to polymerise fibrinogen in human plasma
"Peptide Dendrimer No. 9: three-branch dendrimer: two peptides GPRPFPA, third APFPRPG attached by its amino-terminal end, carboxy-terminal amide (chain 2 APFPRPG-NH2; also: three-branch dendrimer core: two GPRPFPA, APFPRPG attached by its amino-terminal end; listed as Homo sapiens)",ability to copolymerise with fibrinogen (clotting time),[2]; [4],very active in copolymerising with fibrinogen
same,ability to polymerise fibrinogen in human plasma,[3],not able to polymerise fibrinogen in human plasma
"Peptide Dendrimer No. 10: three-branch dendrimer, three GPRPG peptides each attached by carboxy-terminal end to the branched core (also: three copies of chain 1 attached by C-termini to a branched core; listed as Homo sapiens)",clotting times compared between dendrimers,"[2]; concentrations below ~0.125 mg/ml dendrimer, FIG. 2",faster clotting times than dendrimer no. 4
same,ability to polymerise fibrinogen in human plasma,[3],able to polymerise fibrinogen in human plasma
"Peptide Dendrimer No. 12: five-arm dendrimer, GPRPG- peptides; branched core with five consecutive lysine residues linked through side chains (chain KKKKK; also: five-arm dendrimer of GPRPG on core of five lysines linked through side chains, attachment places not given here)","Clotting activity, Non-irradiated control","human fibrinogen; extract from gelatin paste, about 0.25 mg/ml peptide, human fibrinogen 3 mg/ml, not irradiated",1 s
same,"Clotting activity, Storage for 2 weeks post irradiation","human fibrinogen; paste irradiated 30 kGy 60Co gamma, stored 2 weeks at room temperature, extract about 0.25 mg/ml, fibrinogen 3 mg/ml",1 s
same,"Clotting activity, Storage for 4 weeks post irradiation","human fibrinogen; paste irradiated 30 kGy 60Co gamma, stored 4 weeks at room temperature, extract about 0.25 mg/ml, fibrinogen 3 mg/ml",1 s
same,ability to copolymerise with fibrinogen (clotting time),"[2]; dendrimer 0.005-2 mg/ml, 100 μl purified human fibrinogen 3 mg/ml, FIG. 1",able to copolymerise with fibrinogen almost instantaneously
same,clotting,"[2]; dendrimer range ~0.02-0.5 mg/ml, FIG. 2",almost instantaneous clotting
same,ability to polymerise fibrinogen in human plasma,[3],able to polymerise fibrinogen in human plasma
same,clotting time in human plasma,"[3]; dendrimer 0.25 mg/ml, human plasma",less than one
